From patent publication US20140186897A1, “TRANSFORMANT OF YEAST OF GENUS SCHIZOSACCHAROMYCES, METHOD FOR PRODUCING SAME, METHOD FOR PRODUCING ß-GLUCOSIDASE, AND CELLULOSE DEGRADATION METHOD” (ASAHI GLASS COMPANY, LIMITED, priority 2011, published 2014)

How the values were obtained:
[1] = thermostability measurement (residual glucosidase activity after heat treatment); format: physicochemical; conditions: for Residual glucosidase activity, Temp 50° C. / Residual glucosidase activity, Temp 55° C. / Residual glucosidase activity, Temp 60° C. / Residual glucosidase activity, Temp 65° C. / Residual glucosidase activity, Temp 70° C. / Residual glucosidase activity, Temp 73° C. / Residual glucosidase activity, Temp 75° C. / Residual glucosidase activity, Untreated: Example 9; for Residual glucosidase activity, Temp 50° C.: 10 minutes at 50° C.; for Residual glucosidase activity, Temp 55° C.: 10 minutes at 55° C.; for Residual glucosidase activity, Temp 60° C.: 10 minutes at 60° C.; for Residual glucosidase activity, Temp 65° C.: 10 minutes at 65° C.; for Residual glucosidase activity, Temp 70° C.: 10 minutes at 70° C.; for Residual glucosidase activity, Temp 73° C.: 10 minutes at 73° C.; for Residual glucosidase activity, Temp 75° C.: 10 minutes at 75° C.; for Residual glucosidase activity, Untreated: no heat treatment (reference set to 100); for thermostability (in words): compared with P3AaBGL1 / β-glucosidase without the mutation
Experimental: To 10 μl of 20 mM pNPG, 10 μl of 1M sodium acetate buffer solution (pH 5.0) and 130 μl of water were added, and then 50 μl of a diluted enzyme sample preliminarily heat-treated at […] for 10 minutes was introduced for reacting them at 37° C. for 10 minutes. As a control, a diluted enzyme sample which was not subjected to the heat treatment was used, and then the reaction was carried out at 37° C. for 10 minutes, in the same manner. 100 μl of each reaction mixture was mixed with 100 μl of 2% sodium carbonate solution to terminate reaction, and then the amount of liberated p-nitrophenol was colorimetrically measured at a wavelength of 450 nm.
The ratio (%) of the colorimetric value of each reaction mixture to the colorimetric value of the control sample (untreated sample) was defined as the residual activity after heat treatment.
(§1) By using the above-obtained culture supernatant of the P3AaBGL1 mutant strain, a diluted enzyme sample was prepared, and then the enzymatic activity of the sample was measured in accordance with the above-described activity measurement method. Further, the glucose inhibition at a final glucose concentration of from 0.1 to 200 mM and the thermostability at a warming temperature of from 50 to 75° C. were measured for evaluation.
(§2) 11F10 strain, 22A12 strain, 28C02 strain, 29F09 strain and mutBGL1 strain selected from the mutant strains, and ASP3326 strain as the original strain were cultivated in a Sakaguchi flask containing 100 ml of YPD medium at 30° C. for two days. To each of the culture supernatants obtained by cultivating them, […] was added until 80% saturation was reached, thereby to carry out ammonium sulfate precipitation at 4° C. for 2 hours. Thereafter, centrifugation was carried out to collect pellets, and the pellets were dissolved in 10 ml of 10 mM citrate phosphate buffer solution (pH 7.0). Then, desalting and concentration were carried out by using an ultrafiltration membrane having MWCO of 100,000, thereby to recover 1 ml of a crude liquid. Thus recovered crude liquid was purified by using Hitrap QXL column to collect a fraction of a peak of pNPG activity, thereby to obtain a purified sample. Elution was carried out by using a 10 mM citrate phosphate buffer solution (pH 7.0) and a NaCl concentration gradient (0 to 1M).
(§3) In the same manner as in Example 1, the residual glucosidase activities after glucose inhibition at a glucose concentration of from 0.1 to 200 mM were measured. Further, the residual glucosidase activities after heat treatment at a temperature of from 50 to 75° C. for 10 minutes were measured.

[2] = glucosidase activity measurement of culture supernatant (pNPG); format: biochemical
Experimental: A mutant strain which formed a large colony was selected from P3AaBGL1 mutant strain library. Then, thus selected strain and P3ASP3326 strain as the original strain were cultivated in 150 μl/well (96-well plate) of YES medium at 30° C. for two days. 50 μl of each culture supernatant was diluted by 150 μl of 50 mM acetate buffer (pH 5.0) to prepare a diluted enzyme sample. Then, the enzymatic activity of the sample was measured in accordance with the following method.
To 10 μl of 20 mM p-nitrophenyl-β-D-glucoside (hereinafter abbreviated as pNPG), 10 μl of 1M sodium acetate buffer solution (pH 5.0) and 130 μl of water were added, and then 50 μl of the diluted enzyme sample was introduced for reacting them at 37° C. for 10 minutes. 100 μl of the reaction mixture was mixed with 100 μl of 2% sodium carbonate solution to terminate reaction, and then the amount of free p-nitrophenol was colorimetrically measured at a wavelength of 450 nm.
The amount of enzyme that produces 1 μmol of p-nitrophenol per minute was defined as 1 U.
The P3AaBGL1 mutant strain obtained as above was cultivated in YES medium at 30° C. for one day. 100 μl of the culture broth was inoculated on 5 ml of YPD medium (1% of yeast extract, 2% of peptone, and 2% of glucose), followed by cultivation at 30° C. for two days. Thereafter, the culture broth was centrifuged to obtain a culture supernatant.
as §1

[3] = glucose inhibition measurement (residual glucosidase activity in the presence of glucose); format: biochemical; conditions: for Residual glucosidase activity, Glc 0 mM / Residual glucosidase activity, Glc 1 mM / Residual glucosidase activity, Glc 5 mM / Residual glucosidase activity, Glc 10 mM / Residual glucosidase activity, Glc 20 mM / Residual glucosidase activity, Glc 50 mM / Residual glucosidase activity, Glc 100 mM / Residual glucosidase activity, Glc 200 mM: Example 9; for Residual glucosidase activity, Glc 0 mM: glucose 0 mM (reference set to 100); for Residual glucosidase activity, Glc 1 mM: glucose 1 mM; for Residual glucosidase activity, Glc 5 mM: glucose 5 mM; for Residual glucosidase activity, Glc 10 mM: glucose 10 mM; for Residual glucosidase activity, Glc 20 mM: glucose 20 mM; for Residual glucosidase activity, Glc 50 mM: glucose 50 mM; for Residual glucosidase activity, Glc 100 mM: glucose 100 mM; for Residual glucosidase activity, Glc 200 mM: glucose 200 mM; for resistance to glucose inhibition (in words): compared with P3AaBGL1 / β-glucosidase without the mutation
Experimental: To 10 μl of 20 mM pNPG, 10 μl of 1M sodium acetate buffer solution (pH 5.0) and from 4 to 10 μl of 1M glucose (final concentration of from 20 to 50 mM) were added, followed by addition of water up to the total volume of 150 μl. Thereafter, 50 μl of the diluted enzyme sample was introduced for reacting them at 37° C. for 10 minutes. As a control, a glucose-free reaction mixture was used, and then the reaction was carried out at 37° C. for 10 minutes, in the same manner. 100 μl of each reaction mixture was mixed with 100 μl of 2% sodium carbonate solution to terminate reaction, and then the amount of liberated p-nitrophenol was colorimetrically measured at a wavelength of 450 nm.
The ratio (%) of the colorimetric value of each reaction mixture to the colorimetric value of the control sample (glucose-free sample) was defined as the residual activity after glucose inhibition.
as §1, §2, §3

[4] = culture supernatant, relative to 0 mM glucose, Tables 7-10

Molecule	Residual glucosidase activity, Temp 50° C. [1]	Residual glucosidase activity, Temp 55° C. [1]	Residual glucosidase activity, Temp 60° C. [1]	Residual glucosidase activity, Temp 65° C. [1]	Residual glucosidase activity, Temp 70° C. [1]	Residual glucosidase activity, Temp 73° C. [1]	Residual glucosidase activity, Temp 75° C. [1]	Residual glucosidase activity, Untreated [1]	thermostability (in words) [1]	Activity ([2]; Example 9, Table 11)	Residual glucosidase activity, Glc 0 mM [3]	Residual glucosidase activity, Glc 1 mM [3]	Residual glucosidase activity, Glc 5 mM [3]	Residual glucosidase activity, Glc 10 mM [3]	Residual glucosidase activity, Glc 20 mM [3]	Residual glucosidase activity, Glc 50 mM [3]	Residual glucosidase activity, Glc 100 mM [3]	Residual glucosidase activity, Glc 200 mM [3]	resistance to glucose inhibition (in words) [3]	further results
6H05	–	–	–	–	–	–	–	–	–	–	–	–	–	–	–	–	–	–	–	Residual activity, Temp 65° C. ([1]; culture supernatant warmed 10 minutes at 65° C., relative to no heat treatment, Tables 7-10): 73%; Residual activity, Temp 67° C. ([1]; culture supernatant warmed 10 minutes at 67° C., relative to no heat treatment, Tables 7-10): 59%; Activity ([2]; pNPG, pH 5.0, 37° C., 10 minutes, Tables 7-10): 525 mU/ml; Residual activity, Glc 20 mM [3, 4]: 41%; Residual activity, Glc 50 mM [3, 4]: 23%
I260F: modified-type P3AaBGL1 with I260F only (mutation 1) (protein) MKITAVIALLFSLAAASPIPVADPGVVSVSLKKRADELAFSPPFYPSPWANGQGEWAEAYQRAVAIVSQMTLDEKVNLTTGTGWELEKCVGQTGGVPRLNIGGMCLQDSPLGIRDSDYNSAFPAGVNVAATWDKNLAYLRGQAMGQEFSDKGIDVQLGPAAGPLGRSPDGGRNWEGFSPDPALTGVLFAETIKGIQDAGVVATAKHYILNEQEHFRQVAEAAGYGFNISDTISSNVDDKTIHEMYLWPFADAVRAGVGAFMCSYNQINNSYGCQNSYTLNKLLKAELGFQGFVMSDWGAHHSGVGSALAGLDMSMPGDITFDSATSFWGTNLTIAVLNGTVPQWRVDDMAVRIMAAYYKVGRDRLYQPPNFSSWTRDEYGFKYFYPQEGPYEKVNHFVNVQRNHSEVIRKLGADSTVLLKNNNALPLTGKERKVAILGEDAGSNSYGANGCSDRGCDNGTLAMAWGSGTAEFPYLVTPEQAIQAEVLKHKGSVYAITDNWALSQVETLAKQASVSLVFVNSDAGEGYISVDGNEGDRNNLTLWKNGDNLIKAAANNCNNTIVVIHSVGPVLVDEWYDHPNVTAILWAGLPGQESGNSLADVLYGRVNPGAKSPFTWGKTREAYGDYLVRELNNGNGAPQDDFSEGVFIDYRGFDKRNETPIYEFGHGLSYTTFNYSGLHIQVLNASSNAQVATETGAAPTFGQVGNASDYVYPEGLTRISKFIYPWLNSTDLKASSGDPYYGVDTAEHVPEGATDGSPQPVLPAGGGSGGNPRLYDELIRVSVTVKNTGRVAGDAVPQLYVSLGGPNEPKVVLRKFDRLTLKPSEETVWTTTLTRRDLSNWDVAAQDWVITSYPKKVHVGSSSRQLPLHAALPKVQ	97.0%	91.2%	87.7%	65.2%	22.6%	1.8%	1.8%	100%	increase	457 mU/ml	100%	95.9%	73.6%	55.6%	39.0%	20.2%	11.4%	6.3%	increase	–
N458S: modified-type P3AaBGL1 with N458S only (mutation 3) (protein) MKITAVIALLFSLAAASPIPVADPGVVSVSLKKRADELAFSPPFYPSPWANGQGEWAEAYQRAVAIVSQMTLDEKVNLTTGTGWELEKCVGQTGGVPRLNIGGMCLQDSPLGIRDSDYNSAFPAGVNVAATWDKNLAYLRGQAMGQEFSDKGIDVQLGPAAGPLGRSPDGGRNWEGFSPDPALTGVLFAETIKGIQDAGVVATAKHYILNEQEHFRQVAEAAGYGFNISDTISSNVDDKTIHEMYLWPFADAVRAGVGAIMCSYNQINNSYGCQNSYTLNKLLKAELGFQGFVMSDWGAHHSGVGSALAGLDMSMPGDITFDSATSFWGTNLTIAVLNGTVPQWRVDDMAVRIMAAYYKVGRDRLYQPPNFSSWTRDEYGFKYFYPQEGPYEKVNHFVNVQRNHSEVIRKLGADSTVLLKNNNALPLTGKERKVAILGEDAGSNSYGANGCSDRGCDSGTLAMAWGSGTAEFPYLVTPEQAIQAEVLKHKGSVYAITDNWALSQVETLAKQASVSLVFVNSDAGEGYISVDGNEGDRNNLTLWKNGDNLIKAAANNCNNTIVVIHSVGPVLVDEWYDHPNVTAILWAGLPGQESGNSLADVLYGRVNPGAKSPFTWGKTREAYGDYLVRELNNGNGAPQDDFSEGVFIDYRGFDKRNETPIYEFGHGLSYTTFNYSGLHIQVLNASSNAQVATETGAAPTFGQVGNASDYVYPEGLTRISKFIYPWLNSTDLKASSGDPYYGVDTAEHVPEGATDGSPQPVLPAGGGSGGNPRLYDELIRVSVTVKNTGRVAGDAVPQLYVSLGGPNEPKVVLRKFDRLTLKPSEETVWTTTLTRRDLSNWDVAAQDWVITSYPKKVHVGSSSRQLPLHAALPKVQ	98.6%	95.7%	91.6%	64.2%	19.4%	0.8%	1.6%	100%	can be improved	586 mU/ml	100%	92.7%	68.1%	52.1%	35.9%	17.7%	10.4%	6.0%	without decreasing	–
